Data: publication PMC4474532 (The EMBO Journal, 2015)

B1: human PERK luminal domain (residues 105–403) (domain or fragment, UniProt Q9NZJ5 105-403, looked up)
chain: LVIISTLDGRIAALDPENHGKKQWDLDVGSGSLVSSSLSKPEVFGNKMIIPSLDGALFQWDQDRESMETVPFTVESLLESSYKFGDDVVLVGGKSLTTYGLSAYSGKVRYICSALGCRQWDSDEMEQEEDILLLQRTQKTVRAVGPRSGNEKWNFSVGHFELRYIPDMETRAGFIESTFKPNENTEESKIISDVEEQEAAIMDIVIKVSVADWKVMAFSKKGGHLEWEYQFCTPIASAWLLKDGKVIPISLFDDTSYTSNDDVLEDEEDIVEAARGATENSVYLGMYRGQLYLQSSVRI
B2: mouse PERK luminal domain (residues 101–399) (domain or fragment, UniProt Q9Z2B5 101-399, looked up)
chain: LVIISTLDGRIAALDAENDGKKQWDLDVGSGSLVSSSLSKPEVFGNKMIIPSLDGDLFQWDRDRESMEAVPFTVESLLESSYKFGDDVVLVGGKSLITYGLSAYSGKLRYICSALGCRRWDSDEMEEEEDILLLQRTQKTVRAVGPRSGSEKWNFSVGHFELRYIPDMETRAGFIESTFKPGGNKEDSKIISDVEEQEATMLDTVIKVSVADWKVMAFSRKGGRLEWEYQFCTPIASAWLVRDGKVIPISLFDDTSYTASEEALGDEEDIVEAARGATENSVYLGMYRGQLYLQSSVRV

Legend:
[1] = molecular target: the molecule itself; assay: crystal structure; human PERK LD, untagged, 5 mg/ml, hanging drops, 0.1 M Tris pH 8.5, 0.2 M MgCl2, 25% w/v PEG3350, 7% glycerol, 18°C; tungstate MAD; 3.1 Å
[2] = molecular target: the molecule itself; assay: SAXS; H. sapiens PERK LD 1.25 mg/ml (results: 1–5 mg/ml); 50 mM HEPES pH 7.8, 200 mM NaCl, 2 mM TCEP; profiles computed from the crystal structures fitted with OLIGOMER
[3] = molecular target: the molecule itself; assay: AUC; sedimentation velocity, 20°C, PERK LD proteins at 30 μM; 50 mM HEPES pH 7.8, 200 mM NaCl, 2 mM TCEP; c(s) by Sedfit; dimer to tetramer equilibrium
[4] = molecular target: the molecule itself; assay: crystal structure; mouse PERK LD, untagged, 20 mg/ml, hanging drops, 0.1 M MES/imidazole pH 6.5, NPS mix, 12.5% PEG1000, 12.5% PEG3350, 20% MPD, 18°C; 3.3 Å

Protein	stoichiometry N [1]	dimer to tetramer ratio [2]	stoichiometry N [2]	dimer to tetramer ratio [3]	stoichiometry N [3]	stoichiometry N [4]
B1	4	1.5 dimer:tetramer	2	–	–	–
B2	–	–	–	~1.5 dimer:tetramer	4	2
